Assay results published in patent publication US20240409643A1, “ANTI-NMDAR2B ANTIBODIES, ANTIBODY-DRUG CONJUGATES, AND CHIMERIC ANTIGEN RECEPTORS, AND COMPOSITIONS AND METHODS OF USE” (THE TRUSTEES OF DARTMOUTH COLLEGE, priority 2021, published 2024).
Numbering of substitutions follows the chain as printed. “Also recorded” adds a separate entry of the source. Ends that are not written are not given here. * marks the point of attachment. 125I = [125I]*

B1: Fab9 (Fab, V domains shown)
VH: EVQLVESGGGLVQPGGSLRLSCAASGFNLSYSSMHWVRQAPGKGLEWVASISPYSGSTYYADSVKGRFTISADTSKNTAYLQMNSLRAEDTAVYYCARYYWYYYYGFDYWGQGTLVTVSS
VL: DIQMTQSPSSLSASVGDRVTITCRASQSVSSAVAWYQQKPGKAPKLLIYSASSLYSGVPSRFSGSRSGTDFTLTISSLQPEDFATYYCQQYVGYGSPITFGQGTKVEIK
notes: also called Ab9 (IgG form with the same VH and VL)
B2: Fab4 (Fab, V domains shown)
VH: EVQLVESGGGLVQPGGSLRLSCAASGFNLYYYSIHWVRQAPGKGLEWVAYISSYYGYTYYADSVKGRFTISADTSKNTAYLQMNSLRAEDTAVYYCARYYPGGWHAFDYWGQGTLVTVSS
VL: B1 VL with V92Y, S96Y
notes: also called Ab4 (IgG form with the same VH and VL)
B3: Fab10 (Fab, V domains shown)
VH: EVQLVESGGGLVQPGGSLRLSCAASGFNLYSSYMHWVRQAPGKGLEWVASISSSYGYTYYADSVKGRFTISADTSKNTAYLQMNSLRAEDTAVYYCARTVRGSKKPYFSGWAMDYWGQGTLVTVSS
VL: DIQMTQSPSSLSASVGDRVTITCRASQSVSSAVAWYQQKPGKAPKLLIYSASSLYSGVPSRFSGSRSGTDFTLTISSLQPEDFATYYCQQGSYLITFGQGTKVEIK
notes: also called Ab10 (IgG form with the same VH and VL)
B4: Fab7 (Fab, V domains shown)
VH: B3 VH with L29F, Y30S, Y33S, M34I
VL: B3 VL with Y93H
notes: also called Ab7 (IgG form with the same VH and VL)
B5: Fab6 (Fab, V domains shown)
VH: B3 VH with L29I, M34I
VL: B3 VL with S92G, Y93S
notes: also called Ab6 (IgG form with the same VH and VL)
B6: Fab8 (Fab, V domains shown)
VH: B3 VH with L29I, S31Y
VL: B3 VL with G91A
notes: also called Ab8 (IgG form with the same VH and VL)
B7: Fab5 (Fab, V domains shown)
VH: B3 VH with S52Y, G56S, Y57S
VL: B3 VL with S92A, Y93G
notes: also called Ab5 (IgG form with the same VH and VL)

Tests used:
NCI H82 cells [1] = experiment: In vivo treatment of NCI H82 tumors in nu/nu mice with ifenprodil
Description: (§1) Anti-NMDA receptor agent: ifenprodil was used as an exemplary NMDA receptor antagonist
Mouse treatment: Male nu/nu mice were injected subcutaneously with NCI H82 cells (about 10^7 cells/mouse). Tumors became obvious after 2-3 weeks and commenced growing rapidly. Animals were divided into two groups. […] The other group was treated with saline vehicle. Changes in the tumor size and body weight were recorded daily.

[2] = cited from earlier work
LNCAP cells = experiment: LNCAP cell viability assay (AlamarBlue); type: cell-based; settings: for Effect on LNCAP cell viability: 48 hours incubation, % of fluorescence of vehicle treated cells
Description: LNCAP cells were plated in 96 well plates at 1-2×10^4 cells/well. The cells were incubated with PBS with glycine containing albumin (1.25 mg/ml) in the presence of different concentrations of a NMDAR receptor antagonist, MK-801 (also known as dizocilpine) or memantine, dilutions of the anti-NMDAR1 antisera described in Example 1 or anti-NMDAR1 IgG isolated from such antisera, or vehicle only. Each group was run in quadruplicate. AlamarBlue® was later added to each well following an incubation period of 48 hours, and fluorescent readings were taken with excitation at 530-560 nm and emission at 590 nm and above on a SYNERGY™ HT Multi Detection Reader to (BioTek®). Cell viability (%) was calculated as % of fluorescence of vehicle treated cells at 48 hours.

NCI H82 cells [3] = experiment: In vivo combination treatment of NCI H82 tumors in nu/nu mice: cyclophosphamide followed by ifenprodil; settings: cyclophosphamide 75 mg/kg body weight daily for 3 days
Description: Anti-cancer agent: Cyclophosphamide, an alkylating agent, was used as an exemplary anti-cancer agent.
as §1
Mouse treatment: Male nu/nu mice were injected subcutaneously with NCI H82 cells (about 10^7 cells/mouse). […] Animals were divided into two groups. […] The other group was treated with saline vehicle. Changes in the tumor size were recorded daily.

[4] = target: T1, 125I-labeled NMDAR2B immunogen peptide (human); experiment: radioimmunoassay with 125I-labeled and free peptide
T1 construct: also called ^125I-labeled (radiolabel on the N-terminal tyrosine) NMDAR2B immunogen peptide
T1 peptide: Y(125I)KDAHEKDDF-NH2
Description: Radioimmunoassay: Radioimmunoassay on Fab3 through Fab10 was performed using ¹²⁵I-labeled (radiolabel on the N-terminal tyrosine) and free (no radiolabel or additional conjugation) NMDAR2B immunogen peptides.

[5] = target: T2, BSA-coupled NMDAR2B immunogen peptide (human; bovine, UniProt P02769 25-607, carrier, cross-linked to the peptide with glutaraldehyde; C-terminal amide; coupled to BSA with glutaraldehyde); experiment: competition displacement ELISA, additional studies (FIG. 7B)
T2 construct: also called NMDAR2B immunogen peptide coupled to BSA; unlabeled BSA-coupled NMDAR2B immunogen peptide
T2 sequence (P02769 25-607 limits assumed): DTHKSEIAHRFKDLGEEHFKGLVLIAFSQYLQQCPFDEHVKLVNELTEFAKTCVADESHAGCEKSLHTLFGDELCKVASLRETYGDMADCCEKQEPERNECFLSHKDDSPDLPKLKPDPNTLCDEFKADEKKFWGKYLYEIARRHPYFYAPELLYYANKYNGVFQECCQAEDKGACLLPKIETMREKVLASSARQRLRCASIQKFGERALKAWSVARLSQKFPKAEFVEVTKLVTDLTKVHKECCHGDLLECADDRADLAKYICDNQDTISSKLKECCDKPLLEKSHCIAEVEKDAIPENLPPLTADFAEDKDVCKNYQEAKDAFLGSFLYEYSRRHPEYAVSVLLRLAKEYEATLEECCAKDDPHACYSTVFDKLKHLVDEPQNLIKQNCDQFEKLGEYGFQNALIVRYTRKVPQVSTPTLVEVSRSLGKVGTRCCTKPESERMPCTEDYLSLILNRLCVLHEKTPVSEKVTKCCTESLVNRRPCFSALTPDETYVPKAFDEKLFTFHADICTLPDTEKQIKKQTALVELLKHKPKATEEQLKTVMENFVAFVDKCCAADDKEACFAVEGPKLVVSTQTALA
Description: (§2) ELISA assay: 96 well plates (ELISA Microlon 66 (Greiner Bio-one); #655061) were coated with Affinipure anti-human IgG antibodies (which bind to Fabs) (Jackson Immunoresearch Laboratories; #109-005-0060). Each well was added with a 50 μl volume containing 5 ng or 10 ng of an appropriate Fab and another […] volume containing the NMDAR2B immunogen peptide in a range of 10 μg to 10 ng, followed by incubation at 4° C. for 24-48 hours. Plates were washed, and each well was incubated with the biotinylated peptide at 100 ng/ml for 30 minutes to one hour and then with HRP-conjugated streptavidin (Thermo Industries; Product #N100) was added at 1:10,000 dilution for 30 minutes. Plates were washed and incubated with a mixture of 0.007% H₂O₂ and Amplex® Ultrared Reagent (Molecular Probes) for one hour, and fluorescence was read at excitation at 550 nm and fluorescence at 590 nm on a SYNERGY™ HT Multi Detection Reader to (BioTek®).
ELISA assay: ELISA as in Example 6 was performed using the NMDAR2B immunogen peptide coupled to BSA (as prepared in Example 4) and the NMDAR2B immunogen peptide coupled to biotinylated BSA (as prepared in Example 7). Competition displacement curves were generated as repeated points in quadruplicate, and dissociation constants for respective Fabs to the BSA-coupled NMDAR2B immunogen peptide were calculated.

[6] = target: T3, NMDAR2B immunogen peptide, free (YKDAHEKDDF-amide) (human); experiment: competition ELISA against peptide coupled to biotinylated BSA
T3 construct: Free form: no radiolabel and no further conjugation; also called free NMDAR2B immunogen peptide; free peptide
T3 peptide: YKDAHEKDDF-NH2
Description: as §2
ELISA assay: ELISA as in Example 6 was performed using the NMDAR2B immunogen peptide coupled to biotinylated BSA and then, to test competition, the free NMDAR2B immunogen peptide.

[7] = target: T4, Biotinylated NMDAR2B immunogen peptide (human, also: biotinylated, site not given here); experiment: ELISA, Fab captured on anti-human IgG, streptavidin-HRP detection
T4 construct: also called biotinylated peptide
T4 peptide: YKDAHEKDDF-NH2
Description: as §2

Molecule | binding result [4] | binding result [6] | binding result [7] | other results
CC(C(O)c1ccc(O)cc1)N1CCC(Cc2ccccc2)CC1 (centres unmarked) [ifenprodil] | – | – | – | Tumor growth with ifenprodil alone (NCI H82 cells [1]; animals that only received ifenprodil but not cyclophosphamide, after a day of decrease in size): continued to grow; Time for tumors to grow back to their original size (NCI H82 cells [1]; ifenprodil 2.5 mg/kg body weight intraperitoneally once daily): about 10 days; Tumor growth relative to original size (NCI H82 cells [1]; ifenprodil 2.5 mg/kg body weight intraperitoneally once daily, by two weeks of treatment, saline controls >6 times): < 2 times their original size; Tumor size relative to original size after initial shrinkage (NCI H82 cells [1]; ifenprodil 2.5 mg/kg body weight intraperitoneally once daily, in about a day): about 80%; Body weight versus saline control (NCI H82 cells [1]; over 8 days of treatment): no differences between groups; ED50 in mice [2]: about 350 mg/kg body weight
C[C@]12N[C@H](Cc3ccccc31)c1ccccc12 [MK-801, dizocilpine] | – | – | – | Effect on LNCAP cell viability (LNCAP cells): reduced cell viability in a does-dependent manner; Concentration at which the reduction of cell viability was statistically significant (p<0.01) (LNCAP cells; LNCAP cells, 48 hours): > 300 pM
CC12CC3CC(C)(C1)CC(N)(C3)C2 [memantine] | – | – | – | Effect on LNCAP cell viability (LNCAP cells): reduced cell viability in a does-dependent manner
O=P1(N(CCCl)CCCl)NCCCO1 (centres unmarked) [cyclophosphamide] | – | – | – | Effect of cyclophosphamide treatment on tumor growth (NCI H82 cells [3]): does not inhibit tumor growth beyond the time of cyclophosphamide administration; also recorded: slowed but did not stop tumor growth
B1 | no binding | no binding | no binding | Kd [5]: ~5 nM
B2 | no binding | no binding | no binding | –
B3 | no binding | no binding | no binding | –
B4 | no binding | no binding | no binding | –
B5 | no binding | no binding | no binding | –
B6 | no binding | no binding | no binding | –
B7 | no binding | no binding | no binding | –
